Test results taken from publication PMC2614274.

Target: T1, DNA polymerase III alpha subunit (PolIIIα), exonuclease-deficient (Thermus aquaticus, UniProt Q9XDH5 1-1220, D20N;D212N)
T1 sequence: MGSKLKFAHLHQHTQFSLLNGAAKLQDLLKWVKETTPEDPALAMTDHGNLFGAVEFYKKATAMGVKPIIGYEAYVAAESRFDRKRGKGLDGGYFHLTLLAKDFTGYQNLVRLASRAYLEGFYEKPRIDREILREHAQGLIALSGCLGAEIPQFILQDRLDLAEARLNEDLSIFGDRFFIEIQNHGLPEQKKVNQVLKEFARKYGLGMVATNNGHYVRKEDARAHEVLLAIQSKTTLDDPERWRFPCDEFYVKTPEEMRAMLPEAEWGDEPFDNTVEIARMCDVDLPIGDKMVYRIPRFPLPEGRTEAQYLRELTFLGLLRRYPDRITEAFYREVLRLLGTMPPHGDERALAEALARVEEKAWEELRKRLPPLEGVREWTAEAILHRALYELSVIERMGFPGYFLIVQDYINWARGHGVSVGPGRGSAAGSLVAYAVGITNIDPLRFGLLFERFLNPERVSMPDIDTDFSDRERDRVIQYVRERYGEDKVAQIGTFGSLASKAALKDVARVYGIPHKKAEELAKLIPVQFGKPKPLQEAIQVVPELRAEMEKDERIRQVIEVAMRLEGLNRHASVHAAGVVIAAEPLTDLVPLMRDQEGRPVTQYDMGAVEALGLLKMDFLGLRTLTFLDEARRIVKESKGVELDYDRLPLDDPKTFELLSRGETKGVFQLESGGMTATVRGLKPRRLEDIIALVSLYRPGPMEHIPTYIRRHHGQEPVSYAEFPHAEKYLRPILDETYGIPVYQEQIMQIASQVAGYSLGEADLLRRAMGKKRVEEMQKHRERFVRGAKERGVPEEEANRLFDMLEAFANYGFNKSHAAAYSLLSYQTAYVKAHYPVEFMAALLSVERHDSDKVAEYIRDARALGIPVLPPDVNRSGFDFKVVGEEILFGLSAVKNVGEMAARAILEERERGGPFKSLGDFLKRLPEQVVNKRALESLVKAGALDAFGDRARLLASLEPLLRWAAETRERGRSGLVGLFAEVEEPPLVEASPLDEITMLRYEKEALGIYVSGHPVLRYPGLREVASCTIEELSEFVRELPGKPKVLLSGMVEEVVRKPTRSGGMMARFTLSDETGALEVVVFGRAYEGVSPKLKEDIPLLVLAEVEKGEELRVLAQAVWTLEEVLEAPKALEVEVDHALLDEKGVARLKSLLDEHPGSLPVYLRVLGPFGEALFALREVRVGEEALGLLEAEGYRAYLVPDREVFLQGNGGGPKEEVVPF
Experiment: X-ray crystallography

B1: primer-template DNA, ddC-terminated primer (dsDNA)
DNA 1: CGAAACGACGGCCAGTGCCAC
DNA 2: TTTTTTGTGGCACTGGCCGTCGTTTCG
modifications: 2',3'-dideoxycytidine at primer 3' end (incorporated in situ by the polymerase)
binding result: binds
